Experimental findings from publication PMC10713829 (Nature Communications, 2023) are described below.

Peptide text beside a SMILES is read from it.

Assay [1] addresses T1, HLA-A*01:01/hβ2m (Homo sapiens, UniProt P04439, /R68K/S129P/T187R/V100A/V91M/W191G).
T1 construct: BirA substrate peptide (biotinylation tag, […]), seen only in the HDX-MS peptide map (C); made in house
Put plainly: Fluorescence anisotropy competition with TAMRA-NRAS^Q61K. The class given is binding. As for the experimental part: TAMRA association with K61 was modeled to not disrupt interaction with the HLA-A*01:01 groove because K61 is solvent-exposed. […] NRAS peptides were prepared by chemical synthesis (GenScript, Piscataway, USA). […] Data was recorded on a SpectraMax iD5 plate reader with an excitation filter of λex = 531 nm and an emission filter of λem = 595 nm with an PMT gain set to high, an integration time of 1200 msec and read height 0.5 mm. Each experiment was performed in triplicate (n = 3) and is representative of at least two independent experiments. Experimental values were subtracted from background r values obtained from incubation of TAMRA-NRAS^Q61K alone. […] IC50 values were obtain by fitting to a simple single-site (one phase association) model with DynaFit (http://www.biokin.com/dynafit).

Assay [2] deals with T2, HLA-A*01:01/hβ2m (Homo sapiens, UniProt P04439, A114D/A174V/A182V/D101N/D185E/E176A/E190D/L180R/Q94H/R68K/S129P/T187R/V100A/V91M/W191G).
T2 construct: BirA substrate peptide (biotinylation tag, […]), seen only in the HDX-MS peptide map (C); made in house
The experiment in a line: Hydrogen-deuterium exchange mass spectrometry (HDX-MS) of empty and peptide-loaded complexes. The settings on record: for Average % deuterium uptake: 600s.

[3] abbreviates: fragment ASGSHSMRY 2-10, charge 2.
The mark [4] stands for this setting: fragment ASGSHSMRY 2-10, charge 3.
Where [5] appears, read: fragment ASGSHSMRYF 2-11, charge 2.

A word on the IC50: it is the point on the concentration scale where inhibition reaches its midpoint. The low end stands for higher potency, the high end for lower potency. For `CC[C@H](C)[C@H](N)C(=O)N[C@@H](CC(C)C)C(=O)N[C@@H](CC(=O)O)C(=O)N[C@H](C(=O)N[C@@H](C)C(=O)NCC(=O)N[C@@H](CCCCN)C(=O)N[C@@H](CCC(=O)O)C(=O)N[C@@H](CCC(=O)O)C(=O)N[C@@H](Cc1ccc(O)cc1)C(=O)O)[C@@H](C)O` [NRAS^Q61K], the half-inhibitory concentration (IC50) at HLA-A*01:01/hβ2m [1] worked out at 260 nM.

On to `CC[C@H](C)[C@H](N)C(=O)N[C@@H](CC(C)C)C(=O)N[C@@H](CC(=O)O)C(=O)N[C@H](C(=O)N[C@@H](C)C(=O)NCC(=O)N[C@@H](CCC(N)=O)C(=O)N[C@@H](CCC(=O)O)C(=O)N[C@@H](CCC(=O)O)C(=O)N[C@@H](Cc1ccc(O)cc1)C(=O)O)[C@@H](C)O` [Q61] (H-ILDTAGQEEY-OH), for which the IC50 at HLA-A*01:01/hβ2m [1] stood at 278 ± 32 nM.

For the compound “NRAS^Q61H: NRAS55-64 neoepitope peptide with Q61H mutation (ILDTAGHEEY)”, the “% deuterium uptake of peptide fragments corresponding to the NRAS peptide” value with HLA-A*01:01/hβ2m [2] (HDX-MS of peptide/HLA-A*01:01/hβ2m, back-exchange corrected, pD 6.5, 25 °C, up to 600 s, biological triplicates) is recorded as “approx. 75%”. In addition, the “Average % deuterium uptake” value was 85.9593% with HLA-A*01:01/hβ2m [2] (fragment ASGSHSMRY 2-10, charge 1); 85.2218% in the assay with HLA-A*01:01/hβ2m [2] (setting [3]); 85.2836% in the assay with HLA-A*01:01/hβ2m [2] (setting [4]); 76.8148% in the assay with HLA-A*01:01/hβ2m [2] (setting [5]).

Regarding “NRAS^Q61L: NRAS55-64 neoepitope peptide with Q61L mutation (ILDTAGLEEY)”, the “deuterium uptake of the HLA-A*01:01 α2-1 helix (residues 139–155) in the peptide-loaded complex” value in the assay with HLA-A*01:01/hβ2m [2] (HDX-MS, back-exchange corrected, pD 6.5, 25 °C, comparison among peptide-loaded samples) is reported as “significantly reduced deuterium uptake”. The figures for the “Average % deuterium uptake” value in the assay with HLA-A*01:01/hβ2m [2] (setting [3]), with HLA-A*01:01/hβ2m [2] (setting [4]) and with HLA-A*01:01/hβ2m [2] (setting [5]) were 83.6219%, 84.5527% and 77.0018%, respectively.

With “NRAS^Q61R: NRAS55-64 neoepitope peptide with Q61R mutation (ILDTAGREEY)”, the “Average % deuterium uptake” value in the assay with HLA-A*01:01/hβ2m [2] (setting [3]) is recorded as 83.2364%; with HLA-A*01:01/hβ2m [2] (setting [4]), 83.3198%; with HLA-A*01:01/hβ2m [2] (setting [5]), 78.2896%.
